A short description of this series: soluble fraction after stress (log2 fold change); higher = more stays soluble; pooled small domains, quantitative proteomics. As to conditions: stress: 50 degC. The gist of the method: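 Pooled custom libraries of small protein domains were measured in a high-throughput format, with quantitative proteomics as the read-out. Each library was stressed at 50°C. Aggregation propensity is given as the base-two logarithm of the fold change in how much of each protein stays soluble after the stress. Higher values mean a larger share of the protein remains in solution.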

The source of these data is the domain aggregation screens of Martell et al. (2025).

For “HMAITLEVAKKHLEMWLEAESEVAINQSYTIGGKSFTRANLAEIRKQIEYWSNKVAELENLA”, the “soluble fraction (log2)” value came out at 0.0438. On to “HMTIERVKIKETPTGWLRVRETPDNNGSEIGRANVGEIYELLGSKGEWYHIVYKGKQGFISTKYAEKVL”, for which the “soluble fraction (log2)” value was -0.22. The figure for “HMISQATMEKMGLTNRERQLVDFIVRGASNQEISEKMFISINTVKIHVSNIFRKAGVRSRTELMDKYP” is -3.49; for “HMTAFSEQLIKLRKQKGLSQEQLGAAVGVTRQTVSKWELGDTTPELGKLVQLSDYFQLSIDELVGH” it is -0.0666. “HMQMKDRILRIMEHEGISPSKFAEEIGIQRSAMSHIISGRNNPSLDVLTKIMQRFTYVDTDWLLFGKGSMV”: the “soluble fraction (log2)” value is -0.737.

Consider “HMTVSKLKVINYTIRNGDSLWTISRKFNVTVDKVKEWNGLSDRTLLQPGQKLTLYVDPTIQISH”, for which the “soluble fraction (log2)” value is -0.0925.

On to “HMPGMLVVYVTGAVRQPGRMVTLAAGSRVSDAIDAAGGLADDADAQALNLSARLNDGDLVHVPSALD”, for which the “soluble fraction (log2)” value worked out at 0.0161. Consider “HMQISDAGALLDAVRRVLAENPAQVEQFRAGKEKVMGFLVGQVMRATGGKANPQMLNDVLREELS”, for which the “soluble fraction (log2)” value was -0.0404.

Regarding “HMSSDLDQYMKNIRKQHNLSKREFAKQLGISAATIVRIENGITVSPSKNLISKLAYYLQKSEVEILQDIQS”, the “soluble fraction (log2)” value is -1.08.

In the case of “HMLERPLKLKSHYVSTIYEKVAVQYSEGEEKKSVMGTLIEVNQDTIVLDDRGTIIEIPFKSITRAKTVF”, the “soluble fraction (log2)” value was -0.245. The figure for “HMDINLGIGPLVKKYRTIKGYSIRELARNINVTASMLSQIERDIVNPSINTLKAISVELGVPMYKFFM” is -2.33; for “HMSFDGFSDRLKSVLNSGKYTQKEAAEKINISEYSFTKYLNGRIPQTEILYKIARLYNKSMEWLLTGKDPI” it is -2.01; for “HMQEPVYRPVFPGMTDADRQSAMEALKEGGFSPRLNRQTGQLEVDASGYHEAKIYLASQGIPAE” it is 0.124.

For the sequence “HMAKNDSGLNNHTFNTIRDALQKALTDGPQEAKKLTENLPFPADKIITVIRYLADHDEHFSLEDGIISLT”, the “soluble fraction (log2)” value amounted to 0.24.

In the case of “HMISESIPAKDALLRLLNTAYQTRTNAAGEFYFNDVPPGKYILQASVNDVEIIRENISINEN”, the “soluble fraction (log2)” value is -0.249.

Regarding “HMQNDDLTKLDGIGPYIEQRLNDIGIYNYEQLSKLNTEDIQKITELIDFFPGRIERDNWVSQAQLLKI”, the “soluble fraction (log2)” value is -0.316. For “HMLGKEVVRAYNISYAIDDKGSLQGDLTAALTGLIPLSKPPVLDQRNRSLYVTATPEQHKDVAALLAKL”, the “soluble fraction (log2)” value was -0.171. The figure for “HMGENTIFSGVLGEGRLDSALAHALPQFSRARIQGLIAEDAVLIAGKATNDAASKKFAGQSFELSVPAPRP” is 0.105. As for “HMQDPTAVISRVLEERKHQPGALLPILHGIQDALGYVPREAVAQIAQALNLSRAEIHGVVSFYHHFR”, the “soluble fraction (log2)” value is -0.547. Consider “HMSELSEVIEKTFEELPEELKLIVKLREIDDLSYDEISNKIGIPIGTVRSRLHRAREILINIIKN”, for which the “soluble fraction (log2)” value was -1.55. With “HMSVTSEIGAKIKYFRKSKHFSLQEMADLLYKSKSTLSKYENGQISIDIETLYAIAKVLGVHVEQLLYSEP”, the “soluble fraction (log2)” value is -4.49.

Turning to “HMSPQPPNQEAVRTRILDQAAHLFLTIGYAETTVRRIAGAVGIKAASLYHHFGSKDEVFESILIR”, the “soluble fraction (log2)” value was 0.0413.

In the case of “HMNTSITVPSLKGLSQEAATLKMERLGLHVEVSDTGFVRSLAFGTVLQQSIAPGEKVKPGRLVYITINSD”, the “soluble fraction (log2)” value is -1.96. In the case of “HMPAGWIPARIRLADYPQLRSLAWHVQGIDTLTPTEALDIYERNARHLDAQAMSAQEQDLLASLRLALS”, the “soluble fraction (log2)” value is -0.839.

For the sequence “HMAFGTGTVTASSLRVREDASTSAATLDTLSKGSKVSVLADEQDGFYKVQIGEQVGYMSAEYLDVTE”, the “soluble fraction (log2)” value turned out to be 0.0904. To “HMKKILLGDVNLDGKVDVNDVTLLQRYIAGETEVITSKDALTATNFNKDGNIDVLDVTDIQTFIANSE” belongs 0.0836; to “HMYSSASKEEIDQLMKRLILNLDAKGYFWPQDKEKSLKLYLHNLFSKLPLNSSDIRFLHGLIRALSEE”, -1.08. The figure for “HMRQSQEVSGGERYRRLTAYLDTHPFITRKEYSGITGLLKNKALNDLNLLVNKGYLEAMGRGSHKVYVRPM” is -0.424; for “HMTSLQDLLEELRVIRETLTGSQVLSDMQLFSQLRNLGDIKAALTRMQDNPAAARMVGEVDKLLETMFAS” it is -0.955; for “HMIDQIAEQLQQRLAVDTAFATIQRDYPDVIANKDIELLTAIKVNQKIAEGASRASAMLESAKEVYETL” it is -0.0203. In the case of “HMDFSNVNFSQVSDSELDLLMRRASAQGYTQFDLLKIARAQGLTQAEIEKLDKRFKSAETVAYVAENA”, the “soluble fraction (log2)” value worked out at 0.0939. For the sequence “HMKREELTQQTKQNLREAFWSLYIQKPIEKITVKEITDIAGYNRGTFYLYYKDTYDLLAKIE”, the “soluble fraction (log2)” value was -0.149. “HMDRMFQPETWSKIYQWVMNDPQVPDKEDVLALIRRHFGNFEKLIKLLHYLDGGKPYAYLSEH”: the “soluble fraction (log2)” value was -0.115. Take “HMSVLNLQTDIPKKYTDVLGTSVKGRLNTLVHNVIINSVDRPVIQMSEEVHEAMQGLRIFMFENVYRNPV”: the “soluble fraction (log2)” value turned out to be 0.0658. In the case of “HMGDTVSGTMLNLKPGVRVVHQIFGPGRVEETTGASLAEFRVTVRFEQKGLKTLLLQYAALQVINSEN”, the “soluble fraction (log2)” value was -0.795. Regarding “HMQGPDPYAVLGIDRHADERAIKRAYRKLISEHHPDRLGDLPEDMRKRAESRASEINAAYDRIKEARGF”, the “soluble fraction (log2)” value came out at 0.0487. The figure for “HMVPSSHNIAQKVKQIKINDLWLDVRERYIYLKNLYLSHPLEKDHPSFIVYVEAVNQIYNQYF” is 0.02. The figure for “HMQDLTAQQQAILSFLKEHPKATRKEISENIPNITEDNIRYNLSQLQELGFVKSMGDSFIRIAI” is 0.0658; for “HMQDNDLKNQIENVLRTYPDNVFTVEKIADVLRSHGSAAFKLIVQELASLERDKVAVVTEDGKFQLNPD” it is 0.125; for “HMRYFDDEELNNKFLEFLSMRKKIRKPVRTDRALKALLKKLHELSGGDVGLMKQIIDQSLDKEWLGLFEL” it is -0.422. Consider “HMESWNRARILEKIRELHAQGVALNNASMRRLGYRGMMEAAARPQNFGSWEAAVRAAGIDYDRV”, for which the “soluble fraction (log2)” value was -0.00832. The figure for “HMLMNADVLVKYQEDHWIVISEKASQASDTFDKKEQAVERAKEIAKNKNSSVKVYKQDGTLQDTFDYS” is 0.122; for “HMGAARRFEMSEGGSQKFWEVAVEGPALTVRFGKLGTAGTTQTKTLASAEAAAKEADKLVREKTKKGYAP” it is 0.222; for “HMRKPLDQSWVPDDDAMKILTNSGIEKEFIKNEIPEFILYWSDKGEISDSWNTKFISQIRRQWAKNQ” it is -0.222.

Take “HMDSNISVSEALEMVDKGSVKEIIVEGEKLYITNQDGKQYTSSKEVGVSLIELMKDSGIDPIKSDVNIIVK”: the “soluble fraction (log2)” value is 0.214. In the case of “HMTTHERHEIIELLRQVGDPMRPKEISEALGKPSGAIRFLLSKLTEEGAIKKTGYGQYTYIP”, the “soluble fraction (log2)” value is -0.359. For “HMKDDLTWSEGLMPNVVGMGLRDAMFMLENSGLRVNYSGRGKVTRQSPQPGVRIKRGATVAIELRL”, the “soluble fraction (log2)” value is -0.395. The figure for “HMSMSTVGERIKKKRKNLNFTQQELAAKLNISAQAVSKWENGVALPDLGLMPKLAQVLESTVDGLLGYQGA” is 0.0315; for “HMLVTQSITVPMAMSGIRLDAALAMLFPDHSRNRLKAWLDDGHILVDGAVWAGKQRLEGNEEITATLPEAK” it is -0.207.

As to “HMDAVSTMIENLRVKTGKSLADWVGLAKGSGADKHGAMVGWLKSEHGLTHGYANLIAHETFRSAA”, the “soluble fraction (log2)” value worked out at 0.0392. In the case of “HMRIHKQLGDRIRNLRLSSGMNQEELAFKSGISAAHLGQIERGLKSPTISTIQKIAKALNVTLPILF”, the “soluble fraction (log2)” value was -0.298.

Take “HMKININEASRYELMTIGGLDAGRADMLMQYRQKREISSADELKGINGFASYDTAKLQKSFEISP”: the “soluble fraction (log2)” value is -0.0475. For the sequence “HMDYKAELDNIIRDHLDMEGPLLPVLHAVMARFSYIPKDAIPIIARKLNLSSAEVSGVISFYHDFKKEK”, the “soluble fraction (log2)” value was -0.561. For “HMPELSPEERAIIETLQKNNDLQVNIIAIKTGMDMGSLSAVLFDLEMKGLVKLLAGGMYHLI”, the “soluble fraction (log2)” value is -0.148. As for “HMSSLTDNFVKALSYYLALSGKSKKEVADGIGIPPTTFSSWSNGKHLPDMDRLQNLATYLGAPVSEFFDFT”, the “soluble fraction (log2)” value is -0.0831.

On to “HMSDQTYVKDPETGEIFRVHKRVWETGEFWRDPVWGNILGGVERGSELERLLREEGWRPLQQSLEGFPEQ”, for which the “soluble fraction (log2)” value was -0.104. As to “HMTINQIDPASGRKVGYWIITGEMKPKEGFSPDNKIEEGIYVNSRKSGKWIKYWPNGNVRSEIIYKNGR”, the “soluble fraction (log2)” value was -0.549. In the case of “HMTLGSVRTVRQVLDDGRLLVADSGGNVTLVRRAGTLAKENVNTGDRVSVDSSVRFALTLIPV”, the “soluble fraction (log2)” value was -0.0338. Take “HMFSVVDKITLQEELKKLSKKEQLLIQLRYYDELNQEEIAKIFHVSQVQISRMEKKIIEKLKKQF”: the “soluble fraction (log2)” value is -3.58.

Consider “HMNSHKIIDRLNQMITEKDLSEEMPAITEAFKNNERSAEDLKKYVAENLSKKLNAEEREKFVSLILQYRN”, for which the “soluble fraction (log2)” value was found to be 0.039. Consider “HMKEYPEVITTSRLNVRTGPGTGYQRLGTLDQNLRVLVLTRQQGWAQIRGMLNGETVIGWVNDYYLQAID”, for which the “soluble fraction (log2)” value is -0.319. Regarding “HMRYNPETTAGRRGLIIKMLDEYGQVNVNELSRYFNVSEVTVRNDLAYLERKNLLIRARGGAIKTE”, the “soluble fraction (log2)” value is -0.941. In the case of “HMGLNNVSDILRLDFNSFKKKFDKLPSGYKNSVVEQAALMIKSGELDSIKIKDYIEKSMGIELDI”, the “soluble fraction (log2)” value was -0.27. In the case of “HMGSLVQTAMQAVTKHIHDNAMRVGDTLPGEGHFAETLGVSRAVMREAFGALAALKLIDVGNGRKPRVGR”, the “soluble fraction (log2)” value is -0.819. As to “HMDGFVFVMPIKETRMFSVNDERPLVGIVKYSNGEFEKEQLIGFRPNSEYEFIIEGQRLYRVPVNSITIK”, the “soluble fraction (log2)” value was -0.886. As to “HMFVVVPDLIGKTINQFEEDLSELNLKYVVSDSGNFNPEFKINAVLDQSPKANSKVKDGRKIYLTLNAS”, the “soluble fraction (log2)” value was -0.432. Turning to “HMLANLNKELQNDAALLKQKAQGNSNLLAKIQDVEQQMKQVNTSSASDEAKAKELQTLQRKLTAYKKALA”, the “soluble fraction (log2)” value was 0.0101. For the sequence “HMLETLVYPNPTTDKILLSSPVDYHLFSLKGELVLEGRGSSIEVSQLSKGVYFLNTKTQTFKIIK”, the “soluble fraction (log2)” value is -0.383.
